{"source": "paper PMC4823748", "about": "“Production of FAME biodiesel in E. coli by direct methylation with an insect enzyme” (Scientific Reports, 2016)", "proteins": {"B1": {"name": "DmJHAMT (Drosophila melanogaster) (protein)", "chain": "MNQASLYQHANQVQRHDAKLILDEFASTMQWRSDGEDALLDVGSGSGNVLMDFVKPLLPIRGQLVGTDISSQMVHYASKHYQREERTRFQVLDIGCERLPEELSGRFDHVTSFYCLHWVQNLKGALGNIYNLLKPEGGDCLLAFLASNPVYEVYKILKTNDKWSTFMQDVENFISPLHYSLSPGEEFSQLLNDVGFVQHNVEIRNEVFVYEGVRTLKDNVKAICPFLERMPADLHEQFLDDFIDIVISMNLQQGENNEDQKFLSPYKLVVAYARKTPEFVNNVFLEPTHQNLVKGIN", "notes": "primers encode N-terminus MNQASLYQH and C-terminus QNLVKGIN-stop"}}, "substrate": "CCCCCCCCCCCC(=O)O", "assay": "MTAN/LuxS-coupled DTNB colorimetric methyltransferase assay", "format": "biochemical, Drosophila melanogaster", "settings": "500 μM SAM, 50 mM potassium phosphate pH 8.0, 30 °C, 3 μM enzyme, 5–200 μM lauric acid"}
{"protein": "B1", "values": [{"measurement": "Km", "value": 59, "unit": "µM"}, {"measurement": "kcat", "value": 0.0025, "unit": "s⁻¹"}]}
